{"source": "paper PMC4784909", "about": "“The Structural Basis of Coenzyme A Recycling in a Bacterial Organelle” (PLoS Biology, 2016)", "molecules": {"B1": {"name": "rPduL, full length (PduL from the grm3 locus of Rhodopseudomonas palustris BisB18) (enzyme, UniProt Q21A54 1-226, looked up)", "chain": "MDMQQETIERIIRQVLGQVGPAGGSIATLSGDAGVDPFQVAVGVSNRHIHLSRTDMDTLFGPGAELQRKKAMKQPGQFAAEETVTLKGPKGSLSKVRVLGPLRRETQVEVSVADGFALGITPPLRQSGQLDDTPGLTIIGPQGSVTKDHGVIVAQRHIHMHPSTAAKLGLRNGDEVDVEAGGERGGVMHRVLIRVAEASADEMHIDVEEANALCLKNDDVVRICKK", "notes": "PduL phosphotransacylase, grm3 locus, Rhodopseudomonas palustris BisB18, with its N-terminal encapsulation peptide; Two oligomeric states by SEC (about a dimer and a higher oligomer); six subunits by SEC-MALS; also called rPduL hexamer; wildtype construct; source: E. coli BL21(DE3), purified (HisTrap, Superdex 200)"}, "B2": {"name": "rPduLΔEP (PduL from the grm3 locus of Rhodopseudomonas palustris BisB18, N-terminal putative encapsulation peptide removed) (enzyme, UniProt Q21A54 34-226, looked up)", "chain": "GVDPFQVAVGVSNRHIHLSRTDMDTLFGPGAELQRKKAMKQPGQFAAEETVTLKGPKGSLSKVRVLGPLRRETQVEVSVADGFALGITPPLRQSGQLDDTPGLTIIGPQGSVTKDHGVIVAQRHIHMHPSTAAKLGLRNGDEVDVEAGGERGGVMHRVLIRVAEASADEMHIDVEEANALCLKNDDVVRICKK", "notes": "PduL phosphotransacylase, grm3 locus, Rhodopseudomonas palustris BisB18; N-terminal putative EP (33 amino acids) removed; the crystallized construct begins with M-G-V; The construct begins with M-G-V; Gene codon optimized and synthesized with the 6xHis tag; no tag cleavage step is described; Crystals hold CoA (or phosphate) and two zinc ions per chain; also called truncated rPduL; Pdul-His; …"}}, "key": {"[1]": {"biological_target": "T1, rPduLΔEP (Rhodopseudomonas palustris, UniProt Q21A54)", "assay": "X-ray crystal structure, […] Å", "assay_type": "binding", "design": "gene pduL; C-terminal 6xHis, codon optimized, E. coli BL21(DE3); dimer; contains 2 Zn", "details": "CoA co-purified from E. coli; sulfur coordinates Zn1 of di-zinc active site"}, "[2]": {"biological_target": "T1, rPduLΔEP", "design": "gene pduL", "details": "crystals soaked 2 d in sodium phosphate pH 7.0; bridges both Zn in active site, CoA dissociated"}, "[3]": {"biological_target": "pPduL, full length (PduL from the pvm locus of Planctomyces limnophilus) (Planctomyces limnophilus)", "assay": "SEC; post-nickel affinity protein on HiLoad 26/60 Superdex 200 preparative column, pooled fractions (1-20 mg/mL) on Superdex 200 10/300 GL analytical column; 20 mM Tris pH 7.4, 50 mM NaCl"}, "[4]": {"biological_target": "pPduL, full length (PduL from the pvm locus of Planctomyces limnophilus) (Planctomyces limnophilus)", "assay": "SEC; post-nickel affinity protein on HiLoad 26/60 Superdex 200 preparative column, pooled fractions (1-20 mg/mL) on Superdex 200 10/300 GL analytical column; 20 mM Tris pH 7.4, 50 mM NaCl", "remark": "listed apart in the source"}, "[5]": {"biological_target": "the molecule itself", "assay": "SEC-MALS; Superdex S200 10/300 GL, 1 mg/ml protein injected, 0.5 ml/min, 20 mM Tris, 50 mM NaCl, pH 7.4"}, "[6]": {"biological_target": "the molecule itself", "assay": "SEC; post-nickel affinity protein on HiLoad 26/60 Superdex 200 preparative column, pooled fractions (1-20 mg/mL) on Superdex 200 10/300 GL analytical column; 20 mM Tris pH 7.4, 50 mM NaCl"}}, "note": "Where two headings read alike, the source gives them in different places."}
{"molecule": "CC(C)(COP(=O)(O)OP(=O)(O)OC[C@H]1O[C@@H](n2cnc3c(N)ncnc32)[C@H](O)[C@@H]1OP(=O)(O)O)[C@@H](O)C(=O)NCCC(=O)NCCS", "note": "[Coenzyme A]", "values": [{"measurement": "X-ray crystal structure, 1.54 Å", "setting": "[1]", "value": "tetrahedral coordination state with His48, His50, Glu109, and the CoA sulfur"}]}
{"molecule": "O=P(O)(O)O", "note": "[phosphate]", "values": [{"measurement": "X-ray crystal structure, phosphate soak, 2.10 Å", "setting": "[2]", "value": "the CoA dissociates, and density for a phosphate molecule is visible at the active site"}]}
{"molecule": "pPduL, full length (PduL from the pvm locus of Planctomyces limnophilus) (enzyme)", "values": [{"measurement": "stoichiometry N", "setting": "[3]", "value": 2}, {"measurement": "stoichiometry N", "setting": "[4]", "value": 6}]}
{"molecule": "B1", "values": [{"measurement": "stoichiometry N", "setting": "[5]", "value": 6}, {"measurement": "stoichiometry N", "setting": "[6]", "value": "~2"}]}
{"molecule": "B2", "values": [{"measurement": "stoichiometry N", "setting": "[6]", "value": 2}]}
